The numbers were not newly measured in paper PMC10108826, which cites them from elsewhere.

pKd: −log10 of the molar value.

This data set concerns the target sIL-6R soluble ECD (Homo sapiens) (UniProt P08887).
UniProt P08887, sequence (P08887 20-355): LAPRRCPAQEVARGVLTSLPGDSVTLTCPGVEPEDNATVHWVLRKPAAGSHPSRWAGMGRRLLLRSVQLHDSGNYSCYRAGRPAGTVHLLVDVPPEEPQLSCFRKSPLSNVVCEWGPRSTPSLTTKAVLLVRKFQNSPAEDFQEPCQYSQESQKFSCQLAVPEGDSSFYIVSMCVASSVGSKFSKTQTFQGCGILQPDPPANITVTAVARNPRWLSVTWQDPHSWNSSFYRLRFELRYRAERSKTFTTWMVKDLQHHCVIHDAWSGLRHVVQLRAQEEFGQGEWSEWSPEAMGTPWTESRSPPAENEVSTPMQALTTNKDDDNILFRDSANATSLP

IL-6 (from UniProt P05231): the pKd (commonly the Kd on a negative log10 scale, so that one unit is a factor of ten) was 9.00.
